Source: paper PMC3873232

Experiments:
[1] = biological target: unmodified Spt5 CTD peptide (S. pombe); experiment: pull-down; biotinylated peptides (50 µg) on streptavidin Dynabeads incubated with 50-200 ng TAP-purified factor in 200 µl (20 mM Hepes pH 7.6, 37.5 mM KOAc, 2.5 mM MgOAc, 5% glycerol, 0.075% Triton X-100), 4°C, 1 h; washes with 250 mM KOAc; immunoblot with a TAP antibody; percent bound by ImageJ
[2] = biological target: Thr1-P form of the Spt5 CTD peptide (S. pombe); experiment: as above

| percent bound [1] | percent bound [2] | Substance |
| --- | --- | --- |
| 5% | – | PAF complex purified from the tpr1-TAP strain (from UniProt O42668 1-1039; Q9UUE7 1-371) |
| 10% | 35% | Prf1-CBP (TAP-purified, native Prf1) (natural protein) |
